Test results published in paper doi:10.1101/2022.10.12.511876.
Read-outs that look alike come from different tables or passages of the source.

Columns and labels:
[1] = molecular target: Mpf2Ba1 activated by WCR gut fluid (N-terminally cleaved after Lys25) (Pseudomonas monteilii); assay: cryo-EM structure
[2] = molecular target: Mpf2Ba1 activated by WCR gut fluid (N-terminally cleaved after Lys25) (Pseudomonas monteilii); assay: cryo-EM structure; remark: listed apart in the source

Mpf2Ba1 activated by WCR gut fluid (N-terminally cleaved after Lys25) (domain or fragment)
stoichiometry N [1]: 21
stoichiometry N [2]: 22
